In patent publication US20240218057A1 (ROCKEFELLER UNIVERSITY, published 2024):

biological target: T1, SARS-COV-2 RBD (SARS-COV-2, UniProt P0DTC2 319-539); experiment: ELISA, RBD coated on plate
T1 construct: also called WT RBD

| Binder | EC50 [ng/mL] |
| --- | --- |
| C1065 (antibody, V domains shown) VH: EVQLVESGGGLIQPGGSLRLSCAASGFTVSRNYMSWVRQAPGKGLEWVSVIYSGGSTFYADSVKGRFTISRDNSKNTLYLQMNSLRAEDTAVYYCARGLPTGEGWNYFDYWGQGTLVTVSS VL: QSALTQPASVSGSPGQSITISCTGTSSDIGGYHYVSWYQQHPGKAPKLMIYDVSNRPSGISNRFSGSKSGNTASLTISGLQAEDEADYYCSSYASSSVIFGGGTKLTVL | 3.52 |
| C1067 (antibody, V domains shown) VH: QVQLVQSGAEVKKPGASVKVSCKASRDTFTTHYIHWVRQAPGQGLEWMGIINPSGGSISYAQKFQGRVTMTRDTSTSTVYMELSSLRSEDTAVYYCARGGIVPHLSNWFDPWGQGTLVTVSS VL: EIVLTQSPGTLSLSPGERATLSCRASQSVSSSYLAWYQQKPGQAPRLLIYGASSRATGIPDRFTGSGSGTDFTLTISRLEPEDFAVYYCQQYGRSSGFTFGPGTKVDIK | 2.93 |
| C1068 (antibody, V domains shown) VH: QVQLVESGGGVVQPGRSLRLSCAASGFTFSTFAMHWVRQAPGKGLEWVAVTSYDGSNKYYADSVKGRFTISRDNSKNTLYLQMNSLRAEDTAVYYCARGLLWFGESEYFQHWGQGTLVTVSS VL: not shown | 2.48 |
| C1063 (antibody, V domains shown) VH: EVQLVQSGAEVKKPGESLKISCKGYGNSFNNYWIAWVRQMPVKGLEWMGVINPGDSDTRYSPSFQGQVTISVDKSISTAYLQWSSLKASDTAMYYCARTWSPAAVAFFDSWGQGTLVTVS VL: NFMLTQPHSVSESPGKTVTISCTRSSDSIGSNYVQWYQQRPGSSPTIVIYEDSQRPSGVPHRFSGSFDSSSNSASLTISGLKTEDEADYYCQSWDSGNLVFGGGTKLTVL | 3.04 |
| C1062 (antibody, V domains shown) VH: EVQLVESGGGLVQPGGSLRLSCAASGFTFSNYDMHWVRQTTGKGLEWVSAIGTAGDTYYPGSVKGRFTMSRENAKNSLYLQMNSLRAGDTAVYYCARGGLQTTTWLFDNWGQGTLVTVSS VL: DIQMTQSPSSLSASVGDRVTITCRASQTISRYLNWYQQKPGKAPKLLIYAASSLQSGVPSRFSGSGSGTDFTLTISSLQPEDFATYYCQQSYTMPPITFGQGTRLEIK [C1062, listing 1 of 2 here] | 2.61 |
| C1066 (antibody, V domains shown) VH: EVQLVESGGGLVQPGRSLRLSCAASGFMFDDYAMHWVRQAPGKGLEWVSGINWSSADIGYVDSVKGRFTISRDNAKNSLYLQMNSLRTEDTAFYYCAKGWFGELLGGSDSWGQGTLVTVSS VL: QLVLTQSSSASASLGSSVKLTCTLNSGHSSYIIAWHQQQPGKAPRYLMKLEGSGSYNKGSGVPDRFSGSSSGADRYLTISNLQFEDEADYYCATWDSNTQVFGGGTKLTVL | 3.01 |

biological target: T2, SARS-COV-2 RBD (SARS-COV-2, UniProt P0DTC2 319-539); experiment: ELISA, RBD coated on plate
T2 construct: also called WT RBD

| Binder | EC50 [ng/mL] |
| --- | --- |
| C1050 (antibody, V domains shown) VH: EVQLVESGGGLVQPGRSLRLSCAASGFTFDDYGMHWVRQAPGKGLEWVSGISWNGDSIGYADSVKGRFTISRDNAKTSLYLQMNRLRAEDTALYYCAKAASRSTRIGGAFDIWGQGTMVTVSS VL: QSALTQPASVSGSPGQSITISCTGTSSDVGGYNLVSWYQQHPGKAPKLMIYEGSKRPSGVSNRFSGSKSGNTASLTISGLQAEDEADYYCCSYAYSFTNVFGTGTKVTV | 2.78 |
| C1051 (antibody, V domains shown) VH: EVQLVESGGGLVQPGRSLRLSCVASGFTFDDYGLHWVRQAPGKGLEWVSGISWNSDSIGYADSVKGRFAISRDNARTSLYLQMNRLRAEDTALYYCAKAASRSTRIGGAFDIWGQGTMVTVSS VL: QSALTQPASVSGSPGQSITISCTGTSSDVGGYNLVSWYQQYPGKAPKLMIYEDSKRPSGVSHRFSGSKSGNTASLTISGLQAEDEADYYCCSYAFSFTNVFGTGTKVTV | 1.4 |
| C1048 (antibody, V domains shown) VH: EVQLVQSGAEVKKPGESLKISCKVSGYSFISHWIGWVRQMPGKGLEWMGIIYPGDSDTRYSPSFQGQVTISADKSISTAYLQWSSLKASDTAMYYCARRGASWELDYWGQGTLVTV VL: QSVLTQPPSASGTPGQRVTISCSGSSSNIGSNPVSWYQQLPGPAPQLLIYGNDQRPSGVPDRFSGSKSGTSASLAISGLQSEDEADYYCAAWDDSLNGYVFGTGTKVTVL | 2.41 |
| C1030 (antibody, V domains shown) VH: EVQLVESGGGLVQPGGSLRLSCEASGVIVSSNYMNWVRQAPGKGPEWVSVLYAGGSTFYADSVKGRFTISRDDSKNTLFLQMNNLRAEDTAVYFCARDLIAFGMDVWGQGTTVTVSS VL: DIQLTQSPSFLSASVGDRVTITCRASQGINSDLAWYQQKPGKAPKLLIYGASTLQSGVPSRFSGSGSGTEFSLTVSSLQPEDFATYYCQQLNSYRRFGGGTKVEIK | 2.78 |
| C1043 (antibody, V domains shown) VH: EVQLVESGGGLVQPGRSLRLSCAASGFIFDNYAMHWVRQAPGKGLEWVSGISWNSDSIGYADSVKGRFTISRDNAKNSLYLQMSSLRAEDTALYYCAKDLLGNYYYYTLDVWGQGTTVTVSS VL: QSALTQPASVSGSPGQSITISCTGTSSDIGGNNYVSWYQQHPGKAPRLMIFDVSYRPSGVSNRFSGSKSGNTASLTISGLQAEDEADYYCISYTTSSTLGVFGGGTKLTVL | 2.77 |
| C1040 (antibody, V domains shown) VH: QVQLVESGGGVVQPGRSLRLSCAASGFSFINYNMHWVRQAPGKGLEWVAVIWYDGSNKYYADSVKGRFTISRDNSKNTLYLQMNSLRVEDTAVYYCARDPAITEAEIDYWGQGTLVTVSS VL: DVVMTQSPLSLPVTLGQAASISCRSSQSLVHSDGNTYLNWFQQRPGQSPRRLIYRVSNRDSGVPDRFSASGSGTDFTLKISRVEAEDVGVYYCMQGTHWPWTFGQGTKVEIK | 2.08 |
| C1055 (antibody, V domains shown) VH: QVQLVESGGGVVQPGRSLRLSCAASGFTFSTYGMNWVRQAPGKGLEWVALILYDGSDKYYADSVKSRFTISRDNSRNTLYLQMTSLRAEDTAVYYCAKALSSTYYYDASGPDAFDIWGQGTMVTVSS VL: not shown | 2.71 |
| C1052 (antibody, V domains shown) VH: QVQLVQSGAEVKKPGASVKVSCKVSGYTLSELSMHWVRQAPGEGLEWLGGFDPEDGETINAQKFQGRVTMTEDRSTDTAYMELSSLRSEDTAVYYCATRGRYCSSGNCYYHHWGQGTLVTVSS VL: DIQMTQSPSTLSASVGDRVIITCRASQNIHNWLAWYQQKPGKAPKLLIYKASSLESGVPSRFSGSGSGTEFTLTISSLQPDDFATYFCQQYHSYSWTFGQGTKVEIK | 2.64 |
| C1058 (antibody, V domains shown) VH: EVQLVESGGGLVQPGGSLRLSCAASGIIVSSNYMNWVRQVPGKGLEWVSVLYSGGSTFYADSVRGRFTISRDNSKNTLFLQMNSLRPEDTAVYYCARDFREGAFDIWGQGTMVTV VL: DIQLTQSPSFLSASVGDRVTITCRASQGISSYLAWYQQKPGKAPNLLIYAASTLQSGVPSRFSGSGSGTDFTLTISSLQPEDFATYYCQQLNSYSPLFGQGTRLEIK | 2.13 |
| C1059 (antibody, V domains shown) VH: EVQLVESGGGLVQPGGSLRLSCAASGVTVSYNYMHWVRQAPGKGLEWVSVFFPGGSIFYADSVKGRFSISRDNSHNTLYLQMNNLRPEDTAVYYCARDFREGAIDLWGQGTMVTVSS VL: DIQLTQSPSFLSASVEDRVTITCRASQGISSYLAWYQQKPGKAPKLLIYGASTLQSGVPSRFSGSGSGTEFTLTISSLQPEDSATYYCQQLNSYPPLFGQGTRLEIK | 2.17 |
| C1053 (antibody, V domains shown) VH: EVQLLESGGGLVQPGGSLRLSCAASGFTFSSYAMNWVRQAPGKGLEWVSAISGSGGGTYYADSVKGRFTISRDNSKNTLYLQMDSLRAEDTAVYYCAKDVPIEQQLVPTFDYWGQGALVTVSS VL: DIQMTQSPSSLSASVGDRVTITCRASQSISRYLNWYQQKPGKAPKLLIYGASSLQSGVPSRFSGSGSGTDFTLTISSLQPEDFATYWCQQSYSTLSITFGQGTRLEIK | 4.13 |
| C1061 (antibody, V domains shown) VH: EVQLVESGGGLVQPGGSLRLSCAASGFTFSRYDMHWVRQGTGKGLEWVSAIGTSGDTYYPDSVKGRFTISRENAKNSLYLQMNSLRAGDTAVYYCARGGLQTTTWLFDYWGQGTLVTVSS VL: DIQMTQSPSSLSASVGDRVTITCRASQSISRYLNWYQQKPGKAPKLLIYAASSLQSGVPSRFSGSGAGTDFTLTISSLQPEDFAIYYCQQSYSNPPITFGQGTRLEIK | 2.26 |
| C1054 (antibody, V domains shown) VH: EVQLLESGGGLVQPGGSLRLSCVVSGFTFSSYAMNWVRQAPGKGLEWVSVIGGSGDGRYYADSVKGRFTISRDNSKNTLYLQMNSLRGDDTAVYYCARDVPVEQQLVPTFDYWGQGTLVTVSS VL: DIQMTQSPSSLSASVGDRVTITCRASQSISRYLNWYQQKPGKAPKLLIYAASSLQSGVPSRFSGSGSGTEFTLTISSLQPEDFATYYCQQSYSTLSITFGQGTRLEIK | 1.84 |
| C1062 (antibody, V domains shown) VH: EVQLVESGGGLVQPGGSLRLSCAASGFTFSNYDMHWVRQTTGKGLEWVSAIGTAGDTYYPGSVKGRFTMSRENAKNSLYLQMNSLRAGDTAVYYCARGGLQTTTWLFDNWGQGTLVTVSS VL: DIQMTQSPSSLSASVGDRVTITCRASQTISRYLNWYQQKPGKAPKLLIYAASSLQSGVPSRFSGSGSGTDFTLTISSLQPEDFATYYCQQSYTMPPITFGQGTRLEIK [C1062, listing 2 of 2 here] | 2.61 |
| C1046 (antibody, V domains shown) VH: EVQLVQSGAEVKKPGESLKISCKGSGYSFTSYWIGWVRQMPGKGLEWMGIIYPGDSDTRYSPSFQGQVTISADKSISTAYLQWSSLKASDTAMYYCARMVTSGTYYYDNSGYSSSGPFDYWGQGTLVTVSS VL: DIQLTQSPSSLSASVGDRVTITCRASQGISSALAWYQQKPGKAPKLLIYDASSLESGVPSRFSGSGSGTDFTLTISSLQPEDFATYYCQQFNNFGPGTKVDIK | 3.8 |
| C1047 (antibody, V domains shown) VH: EVQLVQSGAEVKKPGESLKISCKGSGYSFISYWIVWVRQMPGKGLEWIGIIYPGDSDTIYSPSFQGQVTLSADKSISTAYLQWSSLKASDTAIYYCAKMVTSGTSYYETRGYASSGPFDNWGQGTLVTVSS VL: DIQLTQSPSSLSASVGDRVTITCRASQGISSALAWYQQKPGKAPKLLIYDASSLESGVPSRFSGSGSGTDFTLTISSLQPEDFATYYCQQSDNFGPGTKVDI | 2.46 |
| C1049 (antibody, V domains shown) VH: EVQLVQSGAEVKKPGESLKISCKSSGYSFISHWIGWVRQMPGKGLEWMGIIWPGDSDTRYSPSFQGQVTISVDKSITTVYLQWSSLKAADTAMYYCARRGSSWEVDYWGQGTLVTVSS VL: not shown | 2.81 |
